Results on three sequences are retold here after article PMC7506613.

The target in this data set is T1, IIA2 peptide (lambda-Cro mutant, helix-turn-helix) (phage lambda (designed mutant)) (UniProt P03040).
T1 sequence: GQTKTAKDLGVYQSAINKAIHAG
Nature of the data set: fluorescence titration (520 nm). As to conditions: fluorescein-labeled peptide; Fluorescence: 20 uM (so in the source) phosphate buffer, room temperature, 15 min; CD: 20 mM phosphate pH 7.4 (stated for peptide CD), 20 uM each; microarray: PBS ….
One may read the Kd as the concentration at which binding is half-saturated. “GCAATGGTACGGTACTTCCGGGCTGGCCAGATCAGACCCCGGATGATCATCCTTGTGAGAACCACAAAAGTGCACGCTACTTTGCTAA [SA23 aptamer]” returned a Kd of 1.64 µM. The figure for TCCGGGG (double strand) [SA23 short1] is 5.81 µM. The figure for “TCCGGGCTGGCCAGATCAGACCCCGGA [SA23 short2]” is 9.61 µM.
